test: soluble on expression in E. coli; label from the status in PepcDB or PDB records

Sequence | soluble on expression in E. coli
MADRNLRDLLAPWVAGLPARELREMTLDSRVAAAGDLFVAVVGHQADGRRYIPQAIAQGVAAIIAEAKDEASDGEIREMHGVPVVYLSQLNERLSALAGRFYHEPSENMRLVAVTGTNGKTTTTQLLAQWSQLLGETSAVMGTVGNGLLGKVIPTENTTGSAVDVQHVLASLVAQGATFGAMEVSSHGLVQHRVAALKFAASVFTNLSRDHLDYHGDMAHYEAAKWMLYSTHHHGQAIVNADDEVGRRWLASLPDAVAVSMEGHINPNCHGRWLKAEAVEYHDRGATIRFASSWGEGEIESRLMGAFNVSNLLLALATLLALGYPLTDLLKTAARLQPVCGRMEVFTAPGKPTVVVDYAHTPDALEKALQAARLHCAGKLWCVFGCGGDRDKGKRPLMGAIAEEFADIVVVTDDNPRTEEPRAIINDILAGMLDAGQVRVMEGRAEAVTNAIMQAKDNDVVLIAGKGHEDYQIVGTQRLDYSDRVTAARLLGVIA | not soluble
MADSTITIRGYVRDNGCSVAAESTNFTVDLMENAAKQFNNIGATTPVVPFRILLSPCGNAVSAVKVGFTGVADSHNANLLALENTVSAASGLGIQLLNEQQNQIPLNAPSSALSWTTLTPGKPNTLNFYARLMATQVPVTAGHINATATFTLEYQDNHHHHHHKQADSTITIRGYVRDN | soluble
MADTFFFTPSRRLTVANVAELTGAKLLNPEFSNTVINTLSSLESAGKGSLVFVEHRKFSDALVGSSAVAVFCTNEIVFKVPESMAILVTSTPQRDFAQIGRILFPDSVKPMPWFGQREISPHAHIHPSAKLAGDVCIEAGAVIGRNVEIGSGSLIASTAVIGENCRIGCDCYIAPKVTVQYSLIGDKVHLYPGACIGQDGFGYIGGASGIEKVPQLGRVIIEDGVEIGANTTIDRGTFEDTIIGEGSKIDNLVQIAHNVKIGRYCLIAAQCGIAGSTSIGDMSQLGGSVGVADHIVIGKYVQIAAGSGVMNDIPDGEKWGGSPARPFKQWFREVAALRSIGKVKKEKR | not soluble
MADVALRITETVARLQKELKCGICCSTYKDPILSTCFHIFCRSCINACFERKRKVQCPICRSVLDKRSCRDTYQITMAVQNYLKLSEAFKKDIENMNTFKSLPPEKMFMESQMPLDITIIPENDGKRCAPDFAIPFLPVRRKRPSRPQPPSAFAEEPAEPVEPPEPATKQPVELQSRVFPLEKLKKDVETSTETYKISREELKNVDIEEYINTLRENSTEIDEIDALFQLMPTMRQFLRNNINQLMEKFHVAPPKKSEKPANRRVSFASSQDLENIKIMTASESLETPPEPIQKLAQKPEVFKSTQNLIDLNLNTAVKKPVVVASDDDEVVEDSEGELQIDEDDLANVTCATSVRNIGKSLCAEYIRGVRQICRICRLPSSANFKKVDLPNLPSSANFEICRTRQKFDSTISTKTTDFFAKNSQLIELVQQCGGEILSCYENLSPEKLYIIFSKHSKAIEESKNIENLYKCDVVTMEWVLDSISEYLILPTQPYKAVDSIGCLQD | not soluble
MAEECSGNCDSCGSSSDCSDTKKMMEQQNAQIRDNMSKIKYKIAVMSGKGGVGKSTVTVNLAATLNMMGYKVGVLDGDIHGPNIPQMLGVDQIQPMADENGIYPVSTPQGIKTMSIGYFLPDKNTPIIWRGPKASGAIRQFLSDVNWGELDFLLIDTPPGSGDIQITTLQAIPDIDGVVIVTTPEEVSVLDARKSVSAANTLEIPIIGIVENMGGFVCPECDKVIDIFGKGGGEKAAKELNVFFLGRIPLDIKARVASDRGVPMVTMDCKASEEFKKVVNTVLERIKKELEHHHHHH | soluble

Reference: the DeepSol protein solubility set
